Assay: soluble on expression in E. coli; label from the status in PepcDB or PDB records

| Sequence | soluble on expression in E. coli |
| --- | --- |
| MQRYNSTYVVKRDGRKEDVHFDKITSRIQKLSYGLNMDFVDPVAVAIKVISGLYKGVTTVELDNLAAETAASMTTQHPEYALLAARIAVSNLHKKTNKVFSEVMKTLHEFHHPHTGKHAPMISDETWAIIEKNADKLNSAIVYDRDYSYTYFGFKTLERSYLLKINKEIVERPQQMLMRVSIGIHGDDITSAIETYNLMSERYMTHASPTLFNSGTCRPQMSSCFLLTMSEDSILGIYDTLKQCALISKSAGGIGLNVHKIRATGSVIAGTNGTSNGLIPMLRVYNNTARYVDQGGNKRPGAFAIYLEPWHADIFEFVSLRKNTGPEEERARDLFLALWIPDLFMKRVEKDQEWSLMCPCECPGLDDCWGEEFEALYAKYEAEGRVRKTVKARKLWEHIVSNQIETGLPYITYKDAANRKSNQQNLGTIKCSNLCTEIIEYSAPDEIAVCNLASIALNRYVTPEKKFDFVKLAEVTKVITRNLNKIIDVNYYPVEEARNSNMRHRPIGLGVQGLADCFMLMRYPFTSAEARDLNKRIFETIYYAALEASCELAELNGPYSTYEGSPVSKGQLQFDMWGVTPTDQCDWATLRKKIAKHGIRNSLLMAPMPTASTAQILGNNESIEPYTSNIYSRRVLSGDFQIVNPHMLKDLVERGLWTDEMKNRLIANNGSIQNIDGIPSDIKELYRTVWEISQKDIIEMAADRGAYIDQSQSLNIHMAKPSYAGITSMHFYGWKKGLKTGMYYLRTKPAVNAVQFTVDKNALKTNQQAETPATVAESQDEGCLMCSG | not soluble |
| GHMLVYNQEELVRFVEEAKQYARYGKVADYIPALGKANPNELSIAIYTPDDEVVSAGDVTVKVTLQSISKIIALALVLIDRGEDEVFHKVGMEPTDYPFHSIAKLEEKPAKPLNPMINAGALVVTSMIQGGSVSERLERLLAFVRRLAGNERISYSDEVARSEFETAFLNRSLCYFLKQHRIIDEDVEELMELYTKQCAIEMTCIDLARIGLVLALDGRDPHSSEPLMPLDVARICKTFMVTCGMYNSSGEFAIKVGIPAKSGVSGGILAAVPGRCGIGVFGPALDDKGNSLTGVKLLERLSKTYSLSIF | soluble |
| AVVFLWRNEEKWPAEFVSENVVKFGYTVEDFISGNFLYGDIIHPEDRNRVKEELKTRIRRGEVDFNTGYRIFTKAGDVRWVNERAFIQRNREGEITHIQGLVLDIT | not soluble |
| MSVEEEKGLLARADEFLQAFKKGAEFTQELLRENERLRFRTLQLEADQKGEGVAAALAVENRKLAARVEELEREIAEIIGQIRQIEAENNDFAARYVEIEEENNNLANLYIASYQLHSTLDFSEVLQIITEIIINLIGAEEFAVMLVDEKTGSLDAVAAEGISLEELPRVRLGEGVIGIAAGTGENYFAEGPETYERDLLRPMVCIPLKIKEHVIGVIAIYKLLIQKKSFASVDYELFTLLAGHAATAIFSSRIYSDSERKLSTMQGFINLLTT | not soluble |
| MPITRTGLPHAVASTSQTQETSQASASQGVLDPGTVPPRRAETFDGLSALPNDLRREIAQRCGPRSLVRLGSVSRQMAEDTRDVRAFLTARPRYDPSLEFGDVHSAESMRVALDEVTHFPYPDDEDRSEQILRGYGRLAARIPSLPQAQRFEAFTAVLNHATRHSGNMAFRVVARLTDDLGCLPEDLRALAFHAILPSLIATRRQALQAAAGAAHVGHIGAVAEADAGGVQGDGEPGPQGAVAPAQGGAAGGIGGALPFNLLASAIRHLPEEAVNLAITEAAALQTGPRLLAEVTLRLHLVGLEPIHRFQQAYAQLAEHLARSGDGAEALTHLVALLNRLPNPGVRQAAFRELTRAVHALDSTESGAAVLRRLAGALPHQPAAVRYLCSLDVLAAAASLFPSEQIPVIAAVRAQAAAIPNQAAELIARCDDAIATASMMLATVSRRYMDM | not soluble |
| SAARLLRGSLRVLGGHRAPRQLPAARCSHSGGEERLETPSAKKLTDIGIRRIFSPEHDIFRKSVRKFFQEEVIPHHSEWEKAGEVSREVWEKAGKQGLLGVNIAEHLGGIGGDLYSAAIVWEEQAYSNCSGPGFSIHSGIVMSYITNHGSEEQIKHFIPQMTAGKCIGAIAMTEPGAGSDLQGIKTNAKKDGSDWILNGSKVFISNGSLSDVVIVVAVTNHEAPSPAHGISLFLVENGMKGFIKGRKLHKMGLKAQDTAELFFEDIRLPASALLGEENKGFYYIMKELPQERLLIADVAISASEFMFEETRNYVKQRKAFGKTVAHLQTVQHKLAELKTHICVTRAFVDNCLQLHEAKRLDSATACMAKYWASELQNSVAYDCVQLHGGWGYMWEYPIAKAYVDARVQPIYGGTNEIMKELIAREIVFDK | soluble |
| MGSDKIHHHHHHMELEEIVDSERNIHKTIEVLGKGGQGIVYRCLDKDVAIKVVLRDGDFIKDKESLKQYEKSVLNLSFKPIESHFPMSIPLVTLKEKQGYVMKMAEGYEPLKTFLKKPSILENEEKDGIFRINNAIQELCKDNHYMTLSLSYYSQTQGLRSRLKILTHLAKLLFRLQSKGLVYGDLNLNNVFYKDNSAFLIDADNVRYESEKALCVIFTPNYGALEISQTSKNSDTTNYNTMLSDTFSFAIITYELLNMVHPFDGNKADDSVENFIELPWIEDRKDDSNRSCGLLPFFLTRDLKNLLA | not soluble |
| HYHGIAANPADIQHEFCTSAQSDLNETQWLLAAKSLGLKAKVVRQPIKRLAMATLPALVWCDDGNHFILAKTDGEGEHAQFLIQDLVTNKSAVLSFAEFSNRYSGKLILVASRASVLGSLAKFDFTWFIPAVIK | not soluble |
| MAPKQPEKIENPPMASAPSSEKESGSTENEYGSSGEETNSSDDEHEEARDNVISTPLSFGQELVSFFKVENLTYLGIDEAKWIAYWDMVKDGPKKREVEKQLKKMLAMQMELFMMRTGFTKEVATVLFKQDNASSSGK | not soluble |
| MAHHTKETMELIKELVSIPSPSGNTAKIINFIENYVSEWNVETKRNNKGALILTVKGKNDAQHRLLTAHVDTLGAMVKEIKPDGRLSLSMIGGFRWNSVEGEYCEIETSSGKTYTGTILMHQTSVHVYKDAGEAKRDEKNIEVRIDERVFSADEVRELGIEVGDFVSFDPRVQITESGYIKSRHLDDKVSVAILLKLIKRLQDENVTLPYTTHFLISNNEEIGYGGNSNIPEETVEYLAVDMGALGDGQASDEYTVSICAKDSSGPYHYALRKHLVELAKTNHIEYKVDIYPYYGSDASAAIRAGFDVKHALIGAGIDSSHAFERTHESSIAHTEALVYAYVMSNLIEE | soluble |
| MGSDKIHHHHHHMSNGGRLVSQLEAEGSTHLTLPIHKKSLSSLWQIRPLRQLIEEHQPDIVHVRSRVPAWLTHFALRKIPANKRPHLISTVHGFYSVNRYSAIMTQAEKVIAVSDSVVKYITDHYKNCPPQDIVRIYRGIDPAAFPHNYQPSAQWFNQVFNDFPELENKFLLCLPGRITRLKGHESLIELMQQLHSQYPQLHAVIVGGADVKKQAYLSELQNTIQSKGLADKITFVGHRSDIREWLAFSDIVLSLSNQAETFGRTALEALSVGTPVIGWNRGGVAEILSHVYPQGLVEAENEKALLETVKHHIEQPQTVAPVTMFSLKDMCDQTLELYQSVLN | not soluble |
| MSNRKLSPDKTQPIYAPNNAFLDECVRVEIINILPLKVLRPAVKESTKYHQILASIQDVGLVEPPAVTPAPGTSGQYFLLDGHLRIEVLKDLGELKVDCLVATDDDTYSYNKRTNRLSAVQSNKMIVRAMERGVSAERLGKALGLSPQTIRQRFRLLNGICAEVVALLGDTDCPANVFNLLRQMKPLRQIEAAELMIGNKNLSVLLAKALLAATPPDQLVMIKKPSQDHQVSAESMARLERELAALQMQIKTVEEDYGPDVLHLTVIKGYLTKLLANAAVVRWLARHQPEYLKEFQSIAELTELPWADNGPEDDLQSTTAEG | not soluble |
| MGSDKIHHHHHHKGHRVTGSDANVYPPMSTQLEDQGIELIQGFDPSQLGEAGHYPDLVVIGNAMSRGNPCVEAVLNIGIPYTSGPQFLADHILPERWVLAVSGTHGKTSTSSMLAWILDDCGYEPGFLIGGVPQNFGVSARLGKTAFFVVEADEYDSAFFDKRSKFVHYHPRTLVINNLEFDHADIFADLAAIQKQFNHLVRTVPGEGKIVWPADSHAVKQTIDMGCWSEQETYHLAESANGWYGKALSDDCHRFEVFFDGESQGILEWDLIGQHNIENAMMAIAAARHVGVKPSAAIEALAKFMPPKRRLELLGTVNGVSVYDDFAHHPTAIATTLKGMRAKVGQSKITVVLEPRSNTMKSGVHKDTLAFSMMQADEAFLYQADTIDWNMKEAMEAAVIPVTVLHQIDDVVAKVTATAKAGDTIVVMSNGGFGGLHKKLLAALELRSTVELV | not soluble |
| MGSDKIHHHHHHMFTVMDIVQPDTVEEAYSILNKRKTNQVIGGSAFLRMGKKRIGTGIELSKLNLDYIKEYEDYVEIGSMTTFRTLETSSIIKNNFGRIIEDSVKNIIGVQFRNVVTVGATVFSKYGFSDLIVALLSLDTEVELYNIGRISLEEFLNRDYEKDLLIKIYIKKTNKNASYKSLRNAKSDYPILNVSVSKHMEQFKLCVGARPQKATIAKQASEFLSNNEINEINIDKAVEIASEELTFGSNMRASREYRKAMSKVLLKRAIMEVI | not soluble |
| MSDLSAQLSAFKNKIKSGPSVIVPRKATFTQSPSSPLSSSTTTTTSKNDANVKKRSTTDSVTRVLKKQKANMGEMTGSHLSTQLHLAVEYIKEHDQPISVEKLQNYLSFDISHTLLPLLNEIDRVKYDESKGTLEYVSLHNIRSSDDLLEFLRRQTTFKGTSVKELKDGWAGCVAAIDELESQGKILVLRNKKENAPRLVWANNGGELGYIDTEFKDMWDQVKLPEPDVLYQKLLDQGLKPTGADPNLIKKQPQQKEKKQKKARRGKITNTHMKGILKDYSQLV | soluble |
| MGSDKIHHHHHHMDQSWVNQAIAKIEADYQRSADTHLIKLELPMLPCIDIYLKDESTHPTGSLKHRLARSLFLYALCNGWITQDTPIIESSSGSTAVSEAYFARLLGLPFIAVMPASTAKKKIQQIEFYGGRCHFVEHSSQIYAESQRLAEELSGHYMDQFTYAERATDWRGNNNIANSIFEQMQREPHPVPSWIVMSPGTGGTSATIGRYIRYQCAKTKLCVVDPENSVFYDYYHSGDASISCAGASRIEGIGRPRAEPSFIPGVVDHMVKIDDSASIATIYWLETLIGRKAGPSTGTNLYGALQLASEMHANGQTGSIVTLLCDSGDRYLDTYYDKQWVDEHIGDITEYQAKLAAFNESGHLE | not soluble |
| MAEVPHHNIPAVDMLNATSRLQLEAQELRNNKPNWGSYFRSQMIQEDDYNFITSFENAKSKEERDQVLAANNANGQAAKTMANLITQVAKDQNVRYVLTLFDDMLQEDKSRVELFHSAAARQKRTVWSQYLGILQRQDNFIVNQMSSIIAKLACFGTTRMEGQDLQYYFSFLKEQLKNSTTNDYMNTTARCLQMMLRHDEYRHEFVDSDGVQTLVTALNGKTNFQLQYQLIFAVWCLTFNADIARKAPSLGLIQALGDILSESTKEKVIRIILASFVNILSKVDEREVKREAALQMVQCKTLKTLELMDAKKYDDPDLEDDVKFLTEELTLSVHDLSSYDEYYSEVRSGRLQWSPVHKSEKFWRENASKFNDKQFEVVKILIKLLESSHDPLILCVASHDIGEYVRHYPRGKTVVEQYQGKAAVMRLLTAEDPNVRYHALLAVQKLMVHNWEYLGKQLDSDVQTDTVAVK | not soluble |
| MVLYFIGLGLYDERDITVKGLEIAKKCDYVFAEFYTSLMAGTTLGRIQKLIGKEIRVLSREDVELNFENIVLPLAKENDVAFLTPGDPLVATTHAELRIRAKRAGVESYVIHAPSIYSAVGITGLHIYKFGKSATVAYPEGNWFPTSYYDVIKENAERGLHTLLFLDIKAEKRMYMTANEAMELLLKVEDMKKGGVFTDDTLVVVLARAGSLNPTIRAGYVKDLIREDFGDPPHILIVPGKLHIVEAEYLVEIAGAPMEILRVNV | soluble |

— the DeepSol protein solubility set
